# Source: patent publication US20210347912A1
# B1: 2B8 predator (VHH)
# VHH: EVQLLESGGGLVQPGGSLRLSCAASGFRDSDEDMGWVRQAPGKGLEWVSSIYAPNGSTYYADSVKGRFTISRDNSKNTLYLQMNSLRAEDTAVYYCASNTYDAFDYWGQGTLVTVSS
# Target: Human YKL-40 also known as Chitinase-3-like protein 1 (CHI3L1) (human) (UniProt P36222)
# Assay: phage ELISA, plate coated with 0.5 ug purified YKL-40, anti-M13-HRP/TMB, well F2
# Chain of UniProt P36222 (P36222 22-383 limits assumed): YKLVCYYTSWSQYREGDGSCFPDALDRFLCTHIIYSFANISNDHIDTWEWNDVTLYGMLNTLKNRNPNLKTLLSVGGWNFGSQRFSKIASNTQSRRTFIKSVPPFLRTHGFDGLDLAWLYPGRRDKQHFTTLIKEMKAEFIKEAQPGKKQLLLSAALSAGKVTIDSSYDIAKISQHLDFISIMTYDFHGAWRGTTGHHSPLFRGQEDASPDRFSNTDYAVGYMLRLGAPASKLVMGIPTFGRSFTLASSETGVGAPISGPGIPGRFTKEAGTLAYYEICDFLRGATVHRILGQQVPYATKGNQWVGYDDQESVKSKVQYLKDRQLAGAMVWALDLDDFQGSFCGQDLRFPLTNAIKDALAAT
binder,measurement,value
B1,ELISA signal,0.054
